Results published in patent US20230212288A1 (published 2023).

B1: 309_01_G12 (bispecific antibody)
chain: DIQLTQTPASLAVSLGQRATISCKASQSVDYDGDSYLNWYQQIPGQPPKLLIYDASNLVSGIPPRFSGSGSGTDFTLNIHPVEKVDAATYHCQQSTEDPWTFGGGTKLEIKGGSGGAMAEVQLVQSGAEVKKPGASVKVSCKASGYTFTGYYMHWVRQAPGQGLEWMGRINPNSGGTNYAQKFQGRVTMTRDTSISTAYMELSRLRSDDAAVYYCARPSRYSNYVDWGQGTTVTVSSGGGGSGGGGSGGGASNFMLTQPHSVSESPGKTVTISCTRSSGSIASNYVQWYQQRPGSAPTTVIYDDDQRPSGVPDRFSGSIDRSSNSASLTISGLKTEDEADYYCQSYDNTNPWVFGGGTKLTVLGQPAAAGGGGSQVQLQQSGAELVRPGSSVKISCKASGYAFSSYWMNWVKQRPGQGLEWIGQIWPGDGDTNYNGKFKGKATLTADESSSTAYMQLSSLASEDSAVYFCARRETTTVGRYYYAMDYWGQGTSVTVSSASAAVECPPCPAPPVAGPSVFLFPPKPKDTLMISRTPEVTCVVVDVSHEDPEVQFNWYVDGVEVHNAKTKPREEQFNSTFRVVSVLTVVHQDWLNGKEYKCKVSNKGLPAPIEKTISKTKGQPREPQVYTLPPSREEMTKNQVSLTCLVKGFYPSDIAVEWESNGQPENNYKTTPPMLDSDGSFFLYSKLTVDKSRWQQGNVFSCSVMHEALHNHYTQKSLSLSPGK
B2: 309_02_F01 (bispecific antibody)
chain: DIQLTQTPASLAVSLGQRATISCKASQSVDYDGDSYLNWYQQIPGQPPKLLIYDASNLVSGIPPRFSGSGSGTDFTLNIHPVEKVDAATYHCQQSTEDPWTFGGGTKLEIKGGSGGAMAEVQLVQSGAEVKKPGASVKVSCKASGYTFTGYYMHWVRQAPGQGLEWMGWINPNSGGTNYAQKFQGRVTMTRDTSISTAYMELSSLRSEDTAVYYCARDKRYSSGWYENWGQGTLVTVSSGGGGSGGGGSGGGASNFMLTQPHSVSESPGKTVTISCTRSSGSIASKYVQWYQQRPGSSPTTVIYEDNQRPSGVPDRFSGSIDISSNSASLTISGLKTEDEADYFCQSYDSSSVIFGGGTKLTVLGQPAAAGGGGSQVQLQQSGAELVRPGSSVKISCKASGYAFSSYWMNWVKQRPGQGLEWIGQIWPGDGDTNYNGKFKGKATLTADESSSTAYMQLSSLASEDSAVYFCARRETTTVGRYYYAMDYWGQGTSVTVSSASAAVECPPCPAPPVAGPSVFLFPPKPKDTLMISRTPEVTCVVVDVSHEDPEVQFNWYVDGVEVHNAKTKPREEQFNSTFRVVSVLTVVHQDWLNGKEYKCKVSNKGLPAPIEKTISKTKGQPREPQVYTLPPSREEMTKNQVSLTCLVKGFYPSDIAVEWESNGQPENNYKTTPPMLDSDGSFFLYSKLTVDKSRWQQGNVFSCSVMHEALHNHYTQKSLSLSPGK
B3: 309_01_G04 (bispecific antibody)
chain: DIQLTQTPASLAVSLGQRATISCKASQSVDYDGDSYLNWYQQIPGQPPKLLIYDASNLVSGIPPRFSGSGSGTDFTLNIHPVEKVDAATYHCQQSTEDPWTFGGGTKLEIKGGSGGAMAEVQLVESGGGVVQPGRSLRLSCAASGFTVSSNYMSWVRQAPGKGLEWVSAISGSGGSTYYADSVKGRFTTSRDNSKNTLYLQMNSLRAEDTAIYYCAKEDYYGGYFDYWGQGTMVTVSSGGGGSGGGGSGGGASNFMLTQPHSVSESPGKTVTISCTRSSGSIASNYVQWYQQRPGSSPTTVIYEDNQRPSGVPDRFSGSIDSSSNSASLTISGLKTEDEADYYCQSYDSSNQAVFGGGTKVTVLGQPAAAGGGGSQVQLQQSGAELVRPGSSVKISCKASGYAFSSYWMNWVKQRPGQGLEWIGQIWPGDGDTNYNGKFKGKATLTADESSSTAYMQLSSLASEDSAVYFCARRETTTVGRYYYAMDYWGQGTSVTVSSASAAVECPPCPAPPVAGPSVFLFPPKPKDTLMISRTPEVTCVVVDVSHEDPEVQFNWYVDGVEVHNAKTKPREEQFNSTFRVVSVLTVVHQDWLNGKEYKCKVSNKGLPAPIEKTISKTKGQPREPQVYTLPPSREEMTKNQVSLTCLVKGFYPSDIAVEWESNGQPENNYKTTPPMLDSDGSFFLYSKLTVDKSRWQQGNVFSCSVMHEALHNHYTQKSLSLSPGK

Target: human CD3 receptor complex (human, UniProt P07766 23-207; P09693 23-182; P04234 22-171)
Assay: cell-based or functional assay

Chain of human CD3 receptor complex (P07766 23-207, chain 1 of 3): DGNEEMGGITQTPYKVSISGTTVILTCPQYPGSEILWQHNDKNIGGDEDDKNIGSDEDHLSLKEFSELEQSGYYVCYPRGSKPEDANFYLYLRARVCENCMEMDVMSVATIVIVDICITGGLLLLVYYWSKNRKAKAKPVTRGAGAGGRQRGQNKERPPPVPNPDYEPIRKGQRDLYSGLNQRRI
Chain of human CD3 receptor complex (P09693 23-182, chain 2 of 3): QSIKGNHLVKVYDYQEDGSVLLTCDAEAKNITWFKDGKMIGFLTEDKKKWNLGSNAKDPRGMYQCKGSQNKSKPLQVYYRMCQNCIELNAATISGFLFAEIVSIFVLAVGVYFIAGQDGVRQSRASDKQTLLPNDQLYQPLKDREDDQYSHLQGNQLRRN
Chain of human CD3 receptor complex (P04234 22-171, chain 3 of 3): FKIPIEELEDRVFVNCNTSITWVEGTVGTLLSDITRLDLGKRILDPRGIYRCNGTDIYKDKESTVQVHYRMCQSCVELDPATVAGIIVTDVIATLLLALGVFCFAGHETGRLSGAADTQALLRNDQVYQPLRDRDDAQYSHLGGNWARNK

Binder | Activity (EC50 for activation of Jurkat line cells, pM) [pM]
B1 | 13.8
B2 | 32.2
B3 | 2
